Laboratory results reported in patent US20240293570A1 (priority 2021, published 2024).
Where two headings read alike, the source gives them in different places. *1 amine or outer side, *2 acyl side, *3 side chain or, on linkers, in order; H or OH if unused. Where a SMILES comes first, the peptide text is derived from it. [ ]: non-standard residue; d: D form. The star is where a group is joined. MaleimidoPEG4propanoyl = O=C1C=CC(=O)N1CCOCCOCCOCCOCCC(=O)*; X2 = CO[C@@H]([C@H]1CCCN1[*:1])[C@@H](C)C(=O)[*:2]; Propanoyl(3-maleimido) = O=C1C=CC(=O)N1CCC(=O)*; Dil = CC[C@H](C)[C@H](NC)[C@@H](CC(=O)O)OC; X1 = O=C(CN1CCOCCN([*:1])CCOCC1)[*:2]; PABC = O=C(OCc1ccc(N[*:1])cc1)[*:2]; X3 = C[C@@H](N*)[C@@H](O)c1ccccc1; NMeV = CN[C@H](C(=O)O)C(C)C

Key:
[1] = Polymer (high molecular component) content of antibody-drug conjugates by SE-HPLC; type: physicochemical; conditions: ADC with Her2 antibody
Method: (§1) Polymers (high molecular components) of the antibody-drug conjugates were tested using molecular exclusion high-performance liquid chromatography (SE-HPLC). A Biocore SEC chromatographic column (7.8×300 mm, […]) was used, and the mobile phase was 50 mM phosphate containing 300 mM sodium chloride (pH 6.8), with a flow rate of 0.5 mL/min. Samples of […] and 10 μl were injected. […] The polymer content of an antibody-drug conjugate was calculated using an area normalization method.

[2] = Naked antibody content of antibody-drug conjugates by hydrophobic interaction chromatography (HIC); type: physicochemical; conditions: ADC with Her2 antibody
Method: The content of naked antibodies in the antibody-drug conjugate was tested using hydrophobic interaction chromatography (HIC). A Biocore HIC-Butyl chromatographic column (4.6×150 mm, 5 μm) was used. The mobile phase A was a 100 mM phosphate aqueous solution containing 2 M ammonium sulfate (pH 7.0), and the mobile phase B was a 100 mM phosphate aqueous solution (pH 7.0): isopropanol=80:20 (V/V). Samples of 50 μg and 10 μl were injected. The mobile phase A at the flow rate of 1 mL/min ran at 100% for 3 minutes. Within 3-25 minutes, the mobile phase B ran from […] to 100%, while the mobile phase B decreased to 0% at 25.1 and ran to 30 minutes. […] The naked antibody content of the antibody-drug conjugate was calculated using an area normalization method based on the retention time of a naked antibody peak located by the antibody of the antibody-drug conjugate.

[3] = type: physicochemical; conditions: ADC with Her2 antibody, RP-HPLC-MS
Method: (§2) A drug-antibody conjugating ratio (also known as drug-antibody ratio, abbreviated as DAR) of the antibody-drug conjugate was tested using reversed-phase high-performance liquid chromatography-mass chromatography (RP-HPLC-MS). The ADC sample was diluted with 50 mmol/L Tris buffer (pH 8.0) to 1 mg/ml. A fresh dithiothreitol (DTT) stock solution was added to achieve a final DTT concentration of 50 mmol/L. Incubation was performed at 37° C. for 30 minutes. A PLRP-S chromatographic column (1000 Å pores, 2.1×50 mm, 5) μm) was used, and the column temperature was 70° C. The flow rate was 0.25 mL/min. […] of sample was injected; the mobile phase A was an aqueous solution of 0.1% formic acid (V/V) and 0.025% trifluoroacetic acid (V/V), and the mobile phase B was an acetonitrile solution of 0.1% formic acid (V/V) and 0.025% trifluoroacetic acid (V/V); the running time was 0-3 minutes, where 27% of mobile phase B ran for 3 minutes, and the mobile phase B ran from 27% to 49% within 3-25 minutes, from 49% to 95% within 25-26 minutes, at 95% within […], from 95% to 27% within 30-31.5 minutes, and at 27% for 31.5-45 minutes. […] Mass spectrometry drying gas was at a temperature of 350° C. and a flow rate of 7.0 L/min, the pressure of an atomizer was 40 psi, capillary voltage was positive 3000V and negative 3000V, and the mass range was 500-1600 m/z. The molecular weight of each mass spectrometry peak (ranging from 20000 to 70000) was calculated by deconvolution and compared with light and heavy chain molecular weights of un-conjugated antibodies to calculate a drug load at each peak, so as to determine the load of a corresponding ultraviolet peak. Area percentages of heavy and light chain ultraviolet peaks were calculated through integration, and a weighted average DAR of the antibody-drug conjugate was calculated by combining the area percentages with the drug load distribution of each peak.

[4] = Stability (placement) test of ADCs at 40° C. in dark for 14 days, DAR and polymer content; type: physicochemical
Method: as §1, §2
Stability testing method: The stability of the obtained ADCs was tested for 14 days. The ADCs were placed at 40° C. in dark. Sampling points were days 0, 7, and 14. The polymer content and DAR value of samples at different sampling points were tested according to the method in Experimental Example 1.

SMILES	Polymer content (%) [1]	Naked antibody content (%) [2]	DAR [3]	DAR ([4]; Day 0, 40° C. in dark)	Polymer content (%) ([4]; Day 0, 40° C. in dark)	DAR ([4]; Day 7, 40° C. in dark)	Polymer content (%) ([4]; Day 7, 40° C. in dark)	DAR ([4]; Day 14, 40° C. in dark)	Polymer content (%) ([4]; Day 14, 40° C. in dark)
C=C1C[C@@H]2CC[C@@]34C[C@H]5OC6C(C[C@H]7CC[C@H](CC(=O)C[C@@H]8[C@@H](OC)[C@@H](C[C@H](O)CNC(=O)CNC(=O)[C@H](Cc9ccccc9)NC(=O)CNC(=O)CNC(=O)CCC(=O)N9CCOCCN(C(=O)CCN%10C(=O)C=CC%10=O)CCOCC9)O[C@H]8C[C@H]8O[C@@H](CC[C@@H]1O2)C[C@@H](C)C8=C)O[C@@H]7[C@@H]6O3)[C@H]5O4 [Example 26]	0.70%	1.26%	3.92	3.92	0.70%	3.92	0.72%	3.96	0.66%
CC[C@@]1(O)C(=O)OCc2c1cc1n(c2=O)Cc2c-1nc1cc(F)c(C)c3c1c2[C@@H](NC(=O)COCNC(=O)CNC(=O)CNC(=O)CNC(=O)CN1CCOCCN(C(=O)CCN2C(=O)C=CC2=O)CCOCC1)CC3 [Example 28]	0.56%	2.76%	3.84	3.84	0.56%	3.89	0.57%	3.82	0.65%
C=C1C[C@@H]2CC[C@@]34C[C@H]5OC6C(O[C@H]7CC[C@H](CC(=O)C[C@@H]8[C@@H](OC)[C@@H](C[C@H](O)CNC(=O)CNC(=O)[C@H](Cc9ccccc9)NC(=O)CNC(=O)CNC(=O)CN9CCOCCOCCN(C(=O)CCCCCN%10C(=O)C=CC%10=O)CCOCCOCC9)O[C@H]8C[C@H]8O[C@@H](CC[C@@H]1O2)C[C@@H](C)C8=C)O[C@@H]7[C@@H]6O3)[C@H]5O4 [Example 39]	0.90%	0.00%	4.30	4.30	0.90%	4.32	0.92%	4.30	0.98%
C=C1C[C@@H]2CC[C@@]34C[C@H]5OC6C(O[C@H]7CC[C@H](CC(=O)C[C@@H]8[C@@H](OC)[C@@H](C[C@H](O)CNC(=O)CNC(=O)[C@H](Cc9ccccc9)NC(=O)CNC(=O)CNC(=O)CN9CCOCCOCCN(C(=O)CCCC%10C(=O)C=CC%10=O)CCOCCOCC9)O[C@H]8C[C@H]8O[C@@H](CC[C@@H]1O2)C[C@@H](C)C8=C)O[C@@H]7[C@@H]6O3)[C@H]5O4 [Example 41]	1.52%	5.05%	3.84	3.84	1.52%	3.81	1.53%	3.81	1.59%
C=C1C[C@@H]2CC[C@@]34C[C@H]5OC6C(O[C@H]7CC[C@H](CC(=O)C[C@@H]8[C@@H](OC)[C@@H](C[C@H](O)CNC(=O)CNC(=O)[C@H](Cc9ccccc9)NC(=O)CNC(=O)CN9CCOCCOCCN(C(=O)CCCC%10C(=O)C=CC%10=O)CCOCCOCC9)O[C@H]8C[C@H]8O[C@@H](CC[C@@H]1O2)C[C@@H](C)C8=C)O[C@@H]7[C@@H]6O3)[C@H]5O4 [Example 42]	1.25%	1.06%	4.12	4.12	1.25%	4.11	1.28%	4.08	1.26%
C=C1C[C@@H]2CC[C@@]34C[C@H]5OC6C(C[C@H]7CC[C@H](CC(=O)C[C@@H]8[C@@H](OC)[C@@H](CC(O)CNC(=O)CNC(=O)[C@H](Cc9ccccc9)NC(=O)CNC(=O)CNC(=O)CN9CCN%10CCN(CCN(CC(=O)NCC(=O)NCC(=O)N[C@@H](Cc%11ccccc%11)C(=O)NCC(=O)NCOCC(=O)N[C@H]%11CCc%12c(C)c(F)cc%13nc%14c(c%11c%12%13)Cn%11c-%14cc%12c(c%11=O)COC(=O)[C@]%12(O)CC)CC9)CCN(C(=O)CCCCCN9C(=O)C=CC9=O)CC%10)O[C@H]8C[C@H]8O[C@@H](CC[C@@H]1O2)C[C@@H](C)C8=C)O[C@@H]7[C@@H]6O3)[C@H]5O4 (stereo partly drawn) [Example 59]	1.18%	2.57%	3.83	3.83	1.18%	3.83	1.22%	3.78	1.27%
CCc1c2c(nc3ccc(O)cc13)-c1cc3c(c(=O)n1C2)COC(=O)[C@@]3(CC)OC(=O)N(C)CCN(C)C(=O)COCNC(=O)[C@H](CC(N)=O)NC(=O)[C@H](C)NC(=O)[C@H](C)NC(=O)CN1CCOCCN(C(=O)CCN2C(=O)C=CC2=O)CCOCC1 [Example 83]	0.56%	2.23%	3.96	3.96	0.56%	3.98	0.59%	3.96	0.58%
CC[C@H](C)[C@@H]([C@@H](CC(=O)N1CCC[C@@H]1[C@H](OC)[C@@H](C)C(=O)N[C@H](C)[C@@H](O)c1ccccc1)OC)N(C)C(=O)[C@@H](NC(=O)[C@H](C(C)C)N(C)C(=O)OCc1ccc(NC(=O)CNC(=O)[C@H](Cc2ccccc2)NC(=O)CNC(=O)CNC(=O)CN2CCOCCN(C(=O)CCOCCOCCOCCOCCN3C(=O)C=CC3=O)CCOCC2)cc1)C(C)C [Example 85] (MaleimidoPEG4propanoyl-[X1]GGFG[PABC][NMeV]V[Dil][X2]-X3)	1.43%	1.98%	4.04	4.04	1.43%	4.08	1.48%	4.00	1.45%
CC[C@H](C)[C@@H]([C@@H](CC(=O)N1CCC[C@@H]1[C@H](OC)[C@@H](C)C(=O)N[C@H](C)[C@@H](O)c1ccccc1)OC)N(C)C(=O)[C@@H](NC(=O)[C@H](C(C)C)N(C)C(=O)OCc1ccc(NC(=O)CNC(=O)[C@H](Cc2ccccc2)NC(=O)CNC(=O)CN2CCOCCN(C(=O)CCN3C(=O)C=CC3=O)CCOCC2)cc1)C(C)C [Example 86] ({Propanoyl(3-maleimido)}-[X1]GFG[PABC][NMeV]V[Dil][X2]-X3)	0.97%	3.45%	4.20	4.20	0.97%	4.23	0.99%	4.16	1.11%
C=C1C[C@@H]2CC[C@@]34C[C@H]5OC6C(O[C@H]7CC[C@H](CC(=O)C[C@@H]8[C@@H](OC)[C@@H](C[C@H](O)CNC(=O)OCc9ccc(NC(=O)[C@H](CCCNC(N)=O)NC(=O)[C@@H](NC(=O)CN%10CCOCCN(C(=O)CCN%11C(=O)C=CC%11=O)CCOCC%10)C(C)C)cc9)O[C@H]8C[C@H]8O[C@@H](CC[C@@H]1O2)C[C@@H](C)C8=C)O[C@@H]7[C@@H]6O3)[C@H]5O4 [Example 87]	1.12%	2.11%	3.85	3.85	1.12%	3.87	1.15%	3.81	1.24%
